According to publication PMC314469, “Protein Interaction Networks by Proteome Peptide Scanning” (PLoS Biology, 2004):

T1: amphyphisin SH3 (AMPH_HUMAN), P49418
T1 chain: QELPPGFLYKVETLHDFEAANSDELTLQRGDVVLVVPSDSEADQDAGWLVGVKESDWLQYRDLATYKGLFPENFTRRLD


How the values were obtained:
[1] = molecular target: T1, amphyphisin SH3 (AMPH_HUMAN), P49418; assay: SPOT array
[2] = molecular target: endophilin SH3 (SH3G2_HUMAN), Q99962; assay: SPOT array

Binder	normalised SPOT signal, Boehringer light units (BLU); mean over the file's lines of this peptide [1]	normalised SPOT signal, Boehringer light units (BLU); mean over the file's lines of this peptide [2]
MSLLLRRPPGREAY [P25705 324-337]	15.9	63.4
ARAALRRPLSGQAL [Q96GZ7 12-25]	87.1	85.3
MWGFLKRPVVVTAD [Q9Y6A1 1-14]	37.8	121
NIQTLDRPIKKGPV [Q9P2M9 345-358]	16.4	58.7
NEPLFVRPPKGSPQ [Q9H251 2718-2731]	215	154
NKVHIKRPTTGLLM [Q92186 286-299]	32.2	125
NGAEPKRPSRPINI [Q9Y6X2 222-235]	3920	105
MLLSPRRPTVEKRA [O94947 263-276]	344	8300
NETGLSRPRRTAMS [Q15598 1736-1749]	742	154
MTSSLQRPWRVPWL [Q13873 1-14]	506	227
ARGSPARPRRLPLL [Q13308 4-17]	6690	1930
MTTTPERPRRGIPG [P27708 1830-1843]	9560	2030
MTVAIRRPGVPGAP [Q96IB4 40-53]	55.2	80.3
NIEKIKRPRSSNAE [Q12920 238-251]	26.5	55.4
NINGIRRPLQGVAN [Q9Y5X7 8-21]	17.3	44.7
MQFSIRRPKLPSSE [Q96DH7 35-48]	118	532
NAALFPRPERYNPQ [P19099 413-426]	699	63.6
NFGNLPRPGRGARG [Q9NYJ2 360-373]	946	1340
NGTQILRPPKVLSP [Q14676 96-109]	5	150
MVPGPARPPGSSWD [Q9BRN8 20-34]	45.4	33.6
NGYFFKRPYPFVLF [Q9NWE7 371-384]	64.4	106
